According to the supplement of paper PMC10065799, “High-throughput profiling of sequence recognition by tyrosine kinases and SH2 domains using bacterial peptide display” (eLife, 2023):

Tests used:
[1] = target: Grb2 SH2 (UniProt P62993); test: SH2 binding enrichment of the phosphorylated peptide, bacterial display (enrichment ratio); higher = better substrate or ligand; peptides without Tyr show the background
[2] = target: c-Src SH2; test: as above
[3] = target: SHP2-C SH2; test: as above
[4] = target: EPHB2 (UniProt P29323); test: phosphorylation enrichment, bacterial display (enrichment ratio); higher = better substrate or ligand; peptides without Tyr show the background
Chain of EPHB2 (P29323 whole entry, looked up): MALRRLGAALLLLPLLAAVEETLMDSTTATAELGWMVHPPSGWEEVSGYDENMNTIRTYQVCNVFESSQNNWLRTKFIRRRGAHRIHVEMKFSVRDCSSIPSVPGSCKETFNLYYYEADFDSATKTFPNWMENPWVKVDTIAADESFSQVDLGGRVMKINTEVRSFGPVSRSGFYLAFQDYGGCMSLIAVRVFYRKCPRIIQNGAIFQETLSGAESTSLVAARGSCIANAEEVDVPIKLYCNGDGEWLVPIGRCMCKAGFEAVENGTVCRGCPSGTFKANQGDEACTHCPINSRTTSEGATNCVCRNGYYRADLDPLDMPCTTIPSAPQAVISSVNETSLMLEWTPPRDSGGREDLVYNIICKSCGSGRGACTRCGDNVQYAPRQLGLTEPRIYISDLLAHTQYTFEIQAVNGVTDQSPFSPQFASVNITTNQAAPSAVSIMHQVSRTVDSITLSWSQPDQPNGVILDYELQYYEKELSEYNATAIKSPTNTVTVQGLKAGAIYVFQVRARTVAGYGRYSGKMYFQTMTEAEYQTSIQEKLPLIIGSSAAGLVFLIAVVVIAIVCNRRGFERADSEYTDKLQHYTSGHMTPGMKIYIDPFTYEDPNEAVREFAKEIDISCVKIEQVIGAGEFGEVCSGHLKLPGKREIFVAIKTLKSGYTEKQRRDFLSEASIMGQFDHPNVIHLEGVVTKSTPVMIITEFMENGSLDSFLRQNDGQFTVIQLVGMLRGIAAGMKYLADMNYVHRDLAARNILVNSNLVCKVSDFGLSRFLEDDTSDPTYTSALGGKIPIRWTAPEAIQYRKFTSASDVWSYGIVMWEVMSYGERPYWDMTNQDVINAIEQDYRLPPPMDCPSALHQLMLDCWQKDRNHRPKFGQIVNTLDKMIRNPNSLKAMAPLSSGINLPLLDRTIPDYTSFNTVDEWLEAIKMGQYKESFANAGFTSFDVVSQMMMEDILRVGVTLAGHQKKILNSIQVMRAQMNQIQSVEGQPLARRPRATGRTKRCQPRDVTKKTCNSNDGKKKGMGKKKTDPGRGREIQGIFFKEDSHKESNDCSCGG

[5] = system: c-Abl (mouse); test: as above
[6] = target: MERTK (UniProt Q12866); test: as above
[7] = target: Jak2 (UniProt O60674); test: as above
[8] = target: Hck (UniProt P08631); test: as above
[9] = target: Fes (UniProt P07332); test: as above
Chain of Fes (P07332 whole entry, looked up): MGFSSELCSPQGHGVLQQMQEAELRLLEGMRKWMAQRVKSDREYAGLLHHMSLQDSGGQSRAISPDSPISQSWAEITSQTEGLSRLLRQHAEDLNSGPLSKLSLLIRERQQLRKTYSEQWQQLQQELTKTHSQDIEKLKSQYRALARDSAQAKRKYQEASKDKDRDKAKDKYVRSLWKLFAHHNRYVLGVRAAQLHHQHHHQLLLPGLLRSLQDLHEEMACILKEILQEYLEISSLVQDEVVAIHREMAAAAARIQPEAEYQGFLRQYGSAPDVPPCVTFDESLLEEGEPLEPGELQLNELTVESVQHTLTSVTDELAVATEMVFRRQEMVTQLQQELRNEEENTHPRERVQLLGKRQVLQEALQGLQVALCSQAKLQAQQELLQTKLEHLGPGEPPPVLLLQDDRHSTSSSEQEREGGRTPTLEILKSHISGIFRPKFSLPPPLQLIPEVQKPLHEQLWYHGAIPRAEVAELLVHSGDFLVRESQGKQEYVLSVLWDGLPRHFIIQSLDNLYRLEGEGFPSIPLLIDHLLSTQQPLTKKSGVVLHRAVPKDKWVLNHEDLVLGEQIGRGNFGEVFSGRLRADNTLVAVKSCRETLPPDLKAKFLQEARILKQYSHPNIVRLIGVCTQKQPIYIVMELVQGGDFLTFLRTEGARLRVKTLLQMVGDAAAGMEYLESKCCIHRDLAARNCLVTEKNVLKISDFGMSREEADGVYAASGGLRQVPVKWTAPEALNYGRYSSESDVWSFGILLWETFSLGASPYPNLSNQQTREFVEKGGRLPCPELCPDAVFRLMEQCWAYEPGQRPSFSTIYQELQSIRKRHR

[10] = system: Fer (mouse); test: as above
[11] = target: EPHB1 (UniProt P54762); test: as above
Chain of EPHB1 (P54762 whole entry, looked up): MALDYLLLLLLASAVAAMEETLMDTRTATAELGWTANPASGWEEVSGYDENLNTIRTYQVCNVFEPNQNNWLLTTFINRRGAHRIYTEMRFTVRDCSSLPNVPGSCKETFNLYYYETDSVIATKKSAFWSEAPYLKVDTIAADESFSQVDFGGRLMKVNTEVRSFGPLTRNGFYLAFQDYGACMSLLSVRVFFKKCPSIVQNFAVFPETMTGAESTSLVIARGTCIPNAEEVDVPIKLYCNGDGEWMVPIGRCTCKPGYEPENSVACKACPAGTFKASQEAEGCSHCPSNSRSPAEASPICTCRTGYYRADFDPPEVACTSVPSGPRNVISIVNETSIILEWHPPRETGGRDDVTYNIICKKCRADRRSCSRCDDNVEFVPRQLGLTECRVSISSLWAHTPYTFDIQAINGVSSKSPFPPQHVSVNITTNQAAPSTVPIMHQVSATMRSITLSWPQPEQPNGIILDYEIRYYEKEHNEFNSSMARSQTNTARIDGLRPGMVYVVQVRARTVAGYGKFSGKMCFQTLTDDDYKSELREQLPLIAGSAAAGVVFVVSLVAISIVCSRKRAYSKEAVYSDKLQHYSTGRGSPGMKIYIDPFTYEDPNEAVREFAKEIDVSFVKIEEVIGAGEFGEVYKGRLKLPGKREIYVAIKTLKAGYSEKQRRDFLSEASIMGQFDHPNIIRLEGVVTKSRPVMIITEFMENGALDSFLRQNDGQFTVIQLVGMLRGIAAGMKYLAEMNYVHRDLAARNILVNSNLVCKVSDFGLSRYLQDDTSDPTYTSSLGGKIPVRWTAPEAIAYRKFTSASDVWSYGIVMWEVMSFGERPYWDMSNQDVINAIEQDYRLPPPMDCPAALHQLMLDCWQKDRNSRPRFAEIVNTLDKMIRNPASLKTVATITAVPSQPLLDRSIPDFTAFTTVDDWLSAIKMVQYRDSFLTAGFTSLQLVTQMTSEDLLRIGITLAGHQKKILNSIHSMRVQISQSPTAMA

[12] = system: c-Src; test: as above
[13] = target: FGFR1 (UniProt P11362); test: as above
Chain of FGFR1 (P11362 whole entry, looked up): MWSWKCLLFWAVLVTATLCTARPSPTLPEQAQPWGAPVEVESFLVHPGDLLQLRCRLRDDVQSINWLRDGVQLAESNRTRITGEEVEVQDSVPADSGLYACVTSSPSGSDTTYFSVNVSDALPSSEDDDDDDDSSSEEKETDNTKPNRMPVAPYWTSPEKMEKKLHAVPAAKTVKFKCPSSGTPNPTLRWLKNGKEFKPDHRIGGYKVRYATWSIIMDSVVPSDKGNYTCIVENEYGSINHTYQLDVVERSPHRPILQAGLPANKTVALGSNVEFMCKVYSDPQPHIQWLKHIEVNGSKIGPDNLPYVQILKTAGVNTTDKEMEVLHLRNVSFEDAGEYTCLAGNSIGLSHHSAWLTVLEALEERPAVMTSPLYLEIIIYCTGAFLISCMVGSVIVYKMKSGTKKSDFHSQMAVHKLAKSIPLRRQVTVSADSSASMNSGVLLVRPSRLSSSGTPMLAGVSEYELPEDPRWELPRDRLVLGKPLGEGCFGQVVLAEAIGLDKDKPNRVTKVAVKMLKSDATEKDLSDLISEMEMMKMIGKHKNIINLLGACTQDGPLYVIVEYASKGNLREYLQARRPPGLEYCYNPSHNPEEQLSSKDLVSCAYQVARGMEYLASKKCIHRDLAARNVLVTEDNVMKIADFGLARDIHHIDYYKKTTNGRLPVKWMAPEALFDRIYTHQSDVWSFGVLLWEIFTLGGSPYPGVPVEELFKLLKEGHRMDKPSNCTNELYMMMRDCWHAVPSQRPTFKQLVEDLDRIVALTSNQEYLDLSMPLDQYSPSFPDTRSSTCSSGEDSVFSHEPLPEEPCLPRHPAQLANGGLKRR

[14] = system: AncSZ; test: as above
[15] = target: FGFR3 (UniProt P22607); test: as above
Chain of FGFR3 (P22607 whole entry, looked up): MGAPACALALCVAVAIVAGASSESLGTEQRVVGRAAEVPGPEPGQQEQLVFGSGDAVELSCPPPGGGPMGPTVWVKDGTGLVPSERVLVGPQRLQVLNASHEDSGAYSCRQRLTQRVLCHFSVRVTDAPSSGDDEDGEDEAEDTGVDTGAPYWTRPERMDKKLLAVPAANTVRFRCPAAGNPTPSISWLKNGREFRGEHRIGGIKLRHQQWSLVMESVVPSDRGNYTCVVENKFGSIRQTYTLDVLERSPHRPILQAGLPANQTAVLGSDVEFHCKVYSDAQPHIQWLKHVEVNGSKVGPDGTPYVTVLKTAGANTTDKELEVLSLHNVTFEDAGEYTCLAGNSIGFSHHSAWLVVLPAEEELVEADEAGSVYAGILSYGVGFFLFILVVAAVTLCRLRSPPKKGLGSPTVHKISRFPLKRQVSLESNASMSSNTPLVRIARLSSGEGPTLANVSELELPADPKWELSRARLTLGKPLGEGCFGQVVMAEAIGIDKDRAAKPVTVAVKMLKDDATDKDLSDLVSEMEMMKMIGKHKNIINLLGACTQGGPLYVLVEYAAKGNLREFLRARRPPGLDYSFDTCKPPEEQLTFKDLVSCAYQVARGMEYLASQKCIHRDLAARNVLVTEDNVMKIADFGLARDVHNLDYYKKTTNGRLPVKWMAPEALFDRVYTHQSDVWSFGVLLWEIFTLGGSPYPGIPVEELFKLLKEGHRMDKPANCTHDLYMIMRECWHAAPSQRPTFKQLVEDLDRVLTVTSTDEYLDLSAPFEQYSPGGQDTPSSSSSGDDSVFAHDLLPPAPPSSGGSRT

[16] = target: Fyn (UniProt P06241); test: as above
Chain of Fyn (P06241 whole entry, looked up, the tested form may be a part): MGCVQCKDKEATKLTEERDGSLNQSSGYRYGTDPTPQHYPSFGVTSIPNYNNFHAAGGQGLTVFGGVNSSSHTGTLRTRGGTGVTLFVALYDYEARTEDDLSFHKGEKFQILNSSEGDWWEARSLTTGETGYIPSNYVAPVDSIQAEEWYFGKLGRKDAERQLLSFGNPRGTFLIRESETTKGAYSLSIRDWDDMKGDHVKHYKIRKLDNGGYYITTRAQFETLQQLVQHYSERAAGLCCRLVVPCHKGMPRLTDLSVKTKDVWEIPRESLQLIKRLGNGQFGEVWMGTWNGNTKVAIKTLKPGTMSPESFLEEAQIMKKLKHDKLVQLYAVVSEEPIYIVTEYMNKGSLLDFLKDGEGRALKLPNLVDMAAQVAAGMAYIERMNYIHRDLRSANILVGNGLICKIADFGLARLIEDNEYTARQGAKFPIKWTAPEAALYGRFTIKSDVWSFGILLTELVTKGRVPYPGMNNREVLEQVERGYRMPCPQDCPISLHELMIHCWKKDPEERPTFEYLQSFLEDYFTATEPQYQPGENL
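Wherever SH2 binding enrichment of the phosphorylated peptide, bacterial display is given: peptide library displayed on the E. coli surface as eCPX fusions, selected cells deep-sequenced, score is each peptide's frequency after selection divided by its frequency in the input.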
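Wherever phosphorylation enrichment, bacterial display is given: 11-residue human phosphosite peptides and single-mutation variants displayed on the E. coli surface, counted by deep sequencing, each peptide's frequency after selection divided by its frequency in the unselected input library; frequency after pTyr selection over input frequency; kinase dosed for 20-30% of maximal phosphorylation in three min.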

| Sequence | SH2 binding enrichment [1] | SH2 binding enrichment [2] | SH2 binding enrichment [3] | phosphorylation enrichment [4] | phosphorylation enrichment [5] | phosphorylation enrichment [6] | phosphorylation enrichment [7] | phosphorylation enrichment [8] | phosphorylation enrichment [9] | phosphorylation enrichment [10] | phosphorylation enrichment [11] | phosphorylation enrichment [12] | phosphorylation enrichment [13] | phosphorylation enrichment [14] | phosphorylation enrichment [15] | phosphorylation enrichment [16] |
| --- | --- | --- | --- | --- | --- | --- | --- | --- | --- | --- | --- | --- | --- | --- | --- | --- |
| GHLFAYDWISI [BEST1_Y227_YF] | 1.36 | 1.09 | 1.16 | 0.823 | 0.526 | 6.92 | 0.707 | 1.4 | 1.48 | 15.1 | 0.938 | 0.915 | 2.76 | 1.25 | 1.74 | 0.894 |
| GIVEEYQLPFF [BMPR1A_Y453_YF] | 0.799 | 0.438 | 0.629 | 0.724 | 2.24 | 0.588 | 1.34 | 0.604 | 1.35 | 0.587 | 0.599 | 0.746 | 0.812 | 3.31 | 0.822 | 0.591 |
| GLRFGYGGLGG [KRTAP20-2_Y15_V17G_YF] | 1.05 | 0.593 | 0.612 | 0.467 | 0.455 | 0.456 | 0.581 | 0.376 | 0.739 | 0.368 | 0.455 | 0.419 | 0.509 | 0.655 | 0.53 | 0.394 |
| GPQGFYSNKLV [PTPN14_Y506_V505F] | 0.792 | 0.465 | 0.708 | 0.387 | 0.586 | 0.641 | 0.445 | 0.393 | 0.441 | 0.409 | 0.307 | 0.45 | 0.369 | 0.529 | 0.406 | 0.348 |
| GQLIVYAPPEW [CNTN6_Y315_F314V] | 0.984 | 0.53 | 0.767 | 1.66 | 9.23 | 1.37 | 0.932 | 2.22 | 0.985 | 0.619 | 0.574 | 1.75 | 0.513 | 1.02 | 0.665 | 1.81 |
| GREEFYVHYVG [KAT8_Y90] | 0.81 | 0.644 | 2.83 | 0.67 | 0.788 | 0.422 | 1.02 | 0.563 | 1.16 | 0.428 | 0.583 | 0.486 | 0.711 | 1.16 | 1.02 | 0.518 |
| GRLFAYPDTHC [CAT_Y358_R363C] | 0.835 | 0.531 | 0.846 | 0.512 | 0.75 | 0.432 | 0.785 | 0.481 | 1.05 | 0.479 | 0.556 | 0.403 | 0.466 | 0.784 | 0.687 | 0.466 |
| GRQGIYTENER [GPR143_Y231] | 0.966 | 0.607 | 0.682 | 0.427 | 0.581 | 0.456 | 0.548 | 0.439 | 0.951 | 0.466 | 0.496 | 0.581 | 0.464 | 0.724 | 0.62 | 0.511 |
| GRVFVYRLSEQ [ITGAE_Y551_YF] | 1.38 | 0.857 | 1.87 | 0.511 | 0.655 | 0.404 | 0.927 | 0.492 | 1.02 | 0.425 | 0.494 | 0.585 | 0.553 | 0.81 | 0.663 | 0.534 |
| GRVLGYGAFGK [FLT4_Y853] | 1.28 | 0.556 | 0.851 | 0.354 | 0.434 | 0.339 | 0.662 | 0.427 | 0.57 | 0.371 | 0.364 | 0.41 | 0.348 | 0.431 | 0.474 | 0.446 |
| GSRGKYSSGFC [ATM_Y332_R337C] | 1.25 | 0.938 | 1.16 | 0.406 | 0.611 | 0.51 | 0.545 | 0.431 | 0.559 | 0.401 | 0.441 | 0.472 | 0.446 | 0.495 | 0.539 | 0.464 |
| GTFVIYVRFGG [FLNB_Y1687_YF] | 1.34 | 0.782 | 0.968 | 0.49 | 0.854 | 0.379 | 0.711 | 0.433 | 1.18 | 0.4 | 0.392 | 0.465 | 0.52 | 1.15 | 0.731 | 0.353 |
| GTSLIYWTLFT [G6PC3_Y214] | 0.746 | 0.457 | 0.652 | 2.09 | 11.2 | 5.81 | 3 | 6.02 | 1.97 | 1.68 | 3.96 | 6.99 | 5.01 | 1.82 | 4.45 | 8.42 |

Continued, in another order:

| SH2 binding enrichment [1] | SH2 binding enrichment [2] | SH2 binding enrichment [3] | Sequence | phosphorylation enrichment [4] | phosphorylation enrichment [5] | phosphorylation enrichment [6] | phosphorylation enrichment [7] | phosphorylation enrichment [8] | phosphorylation enrichment [9] | phosphorylation enrichment [10] | phosphorylation enrichment [11] | phosphorylation enrichment [12] | phosphorylation enrichment [13] | phosphorylation enrichment [14] | phosphorylation enrichment [15] | phosphorylation enrichment [16] |
| --- | --- | --- | --- | --- | --- | --- | --- | --- | --- | --- | --- | --- | --- | --- | --- | --- |
| 1.36 | 1.72 | 0.869 | GHPFAYDWISI [BEST1_Y227_L224P_YF] | 0.721 | 0.562 | 6.57 | 0.774 | 0.811 | 1.22 | 14.7 | 0.932 | 0.629 | 2.03 | 1.04 | 1.29 | 0.478 |
| 0.83 | 0.553 | 0.685 | GIKAAYEAERG [LMNA_Y81_L85R] | 0.363 | 0.475 | 0.347 | 0.517 | 0.406 | 0.755 | 0.365 | 0.344 | 0.344 | 0.403 | 0.566 | 0.487 | 0.329 |
| 0.845 | 5.46 | 0.44 | GIMEEYQLPYY [BMPR1A_Y453_V450M] | 0.795 | 1.25 | 0.398 | 1.28 | 0.998 | 1.4 | 0.942 | 0.748 | 3.76 | 2.23 | 5.83 | 1.57 | 1.4 |
| 0.801 | 0.349 | 0.671 | GIVEDYRPPLF [ACVRL1_Y421_F425L_YF] | 0.418 | 0.511 | 0.377 | 0.626 | 0.343 | 0.904 | 0.406 | 0.442 | 0.373 | 0.434 | 0.841 | 0.722 | 0.458 |
| 0.665 | 0.424 | 0.503 | GLNKGYRMVVN [HINT1_Y94] | 0.392 | 0.461 | 0.303 | 0.403 | 0.436 | 0.696 | 0.318 | 0.307 | 0.34 | 0.388 | 0.531 | 0.449 | 0.375 |
| 0.62 | 0.325 | 0.58 | GLPINYTTRRI [LAMA2_Y2894] | 0.441 | 0.404 | 0.599 | 0.468 | 0.569 | 0.534 | 0.557 | 0.323 | 0.611 | 0.565 | 0.499 | 0.415 | 0.549 |
| 1.53 | 1.15 | 1.41 | GMRHGYGVRQS [JPH2_Y141] | 0.373 | 0.668 | 0.384 | 0.457 | 0.36 | 0.556 | 0.328 | 0.38 | 0.326 | 0.355 | 0.451 | 0.405 | 0.369 |
| 0.885 | 2.32 | 0.751 | GNHISYYQSDG [CACNA1C_Y1757_V1755I] | 0.4 | 0.403 | 0.411 | 0.484 | 0.397 | 0.569 | 0.367 | 0.668 | 0.496 | 0.655 | 0.821 | 0.569 | 0.514 |
| 0.84 | 0.618 | 0.706 | GNHVSYFQSDG [CACNA1C_Y1757_YF] | 0.427 | 0.517 | 0.443 | 0.636 | 0.445 | 0.791 | 0.369 | 0.373 | 0.42 | 0.495 | 0.656 | 0.488 | 0.458 |
| 1.49 | 1.26 | 1.64 | GRSTFYWPSPR [GAGE12J_Y10_R13S_YF] | 0.693 | 0.726 | 6.43 | 0.713 | 0.559 | 0.697 | 0.399 | 0.541 | 0.551 | 0.665 | 0.643 | 0.708 | 0.466 |
| 0.668 | 0.419 | 0.386 | GRSTYYWPRPR [GAGE12J_Y10] | 0.507 | 0.93 | 0.748 | 0.543 | 0.615 | 0.444 | 0.504 | 0.474 | 0.665 | 0.537 | 0.697 | 0.481 | 0.524 |
| 0.891 | 0.542 | 1.12 | GRTPLYMDRQG [AGXT_Y194_G190R] | 0.443 | 0.473 | 0.432 | 0.472 | 0.702 | 0.498 | 0.344 | 0.452 | 0.528 | 0.396 | 0.575 | 0.415 | 0.495 |
| 0.969 | 0.944 | 0.761 | GSERDYTYEEL [EIF2S2_Y174] | 0.645 | 0.977 | 0.707 | 1.29 | 1.21 | 1.13 | 0.6 | 0.602 | 1.63 | 0.535 | 1.36 | 0.711 | 1.09 |
| 0.868 | 0.375 | 1.43 | GSSSSYGQHGS [HRNR_Y517] | 0.343 | 0.322 | 0.309 | 0.352 | 0.339 | 0.472 | 0.316 | 0.315 | 0.256 | 0.396 | 0.376 | 0.293 | 0.376 |
| 0.902 | 0.501 | 0.689 | GVIKEYQIRQV [USH2A_Y3623] | 0.349 | 0.422 | 0.359 | 0.606 | 0.363 | 0.575 | 0.353 | 0.376 | 0.372 | 0.454 | 0.627 | 0.476 | 0.356 |
| 0.915 | 0.507 | 0.933 | GVRFIYTIDGS [DCX_Y105_YF] | 0.737 | 0.924 | 0.48 | 1.45 | 0.674 | 1.59 | 0.669 | 0.628 | 1.01 | 0.546 | 1.41 | 0.843 | 1.04 |
